Results on 21 molecules are retold here after US20250339569A1 (3B PHARMACEUTICALS, published 2025).

The chains are these.
B1: 3BP-3289 (peptide)
peptide: Ac-VYCE[Sar]D[Trp(5-Cl)]LTWQC-NH2
modifications: linker 3-12 via mXylylene
SMILES: CC(=O)N[C@H](C(=O)N[C@@H](Cc1ccc(O)cc1)C(=O)N[C@H]1CSCc2cccc(c2)CSC[C@@H](C(N)=O)NC(=O)[C@H](CCC(N)=O)NC(=O)[C@H](Cc2c[nH]c3ccccc23)NC(=O)[C@H]([C@@H](C)O)NC(=O)[C@H](CC(C)C)NC(=O)[C@H](Cc2c[nH]c3ccc(Cl)cc23)NC(=O)[C@H](CC(=O)O)NC(=O)CN(C)C(=O)[C@H](CCC(=O)O)NC1=O)C(C)C
notes: also called Ac-Val-Tyr-[Cys(3MeBn)-Glu-Nmg-Asp-5Clw-Leu-Thr-Trp-Gln-Cys]-NH2
B2: 3BP-3107 (peptide)
peptide: Hexanoyl-VYCEGDWLTWQC-NH2
modifications: linker 3-12 via mXylylene
SMILES: CCCCCC(=O)N[C@H](C(=O)N[C@@H](Cc1ccc(O)cc1)C(=O)N[C@H]1CSCc2cccc(c2)CSC[C@@H](C(N)=O)NC(=O)[C@H](CCC(N)=O)NC(=O)[C@H](Cc2c[nH]c3ccccc23)NC(=O)[C@H]([C@@H](C)O)NC(=O)[C@H](CC(C)C)NC(=O)[C@H](Cc2c[nH]c3ccccc23)NC(=O)[C@H](CC(=O)O)NC(=O)CNC(=O)[C@H](CCC(=O)O)NC1=O)C(C)C
B3: 3BP-3869 (peptide)
peptide: {DOTA-AEEA}-YCE[dP]DWLTWSC-NH2
modifications: linker 2-11 via mXylylene
SMILES: CC(C)C[C@@H]1NC(=O)[C@H](Cc2c[nH]c3ccccc23)NC(=O)[C@H](CC(=O)O)NC(=O)[C@H]2CCCN2C(=O)[C@H](CCC(=O)O)NC(=O)[C@@H](NC(=O)[C@H](Cc2ccc(O)cc2)NC(=O)COCCOCCNC(=O)CN2CCN(CC(=O)O)CCN(CC(=O)O)CCN(CC(=O)O)CC2)CSCc2cccc(c2)CSC[C@@H](C(N)=O)NC(=O)[C@H](CO)NC(=O)[C@H](Cc2c[nH]c3ccccc23)NC(=O)[C@H]([C@@H](C)O)NC1=O
notes: also called DOTA-O2Oc-Tyr-[Cys(3MeBn)-Glu-pro-Asp-Trp-Leu-Thr-Trp-Ser-Cys]-NH2
B4: 3BP-3064 (peptide)
peptide: Ac-VYCEGDWLTWQ[Pen]-NH2
modifications: linker 3-12 via mXylylene
SMILES: CC(=O)N[C@H](C(=O)N[C@@H](Cc1ccc(O)cc1)C(=O)N[C@H]1CSCc2cccc(c2)CSC(C)(C)[C@@H](C(N)=O)NC(=O)[C@H](CCC(N)=O)NC(=O)[C@H](Cc2c[nH]c3ccccc23)NC(=O)[C@H]([C@@H](C)O)NC(=O)[C@H](CC(C)C)NC(=O)[C@H](Cc2c[nH]c3ccccc23)NC(=O)[C@H](CC(=O)O)NC(=O)CNC(=O)[C@H](CCC(=O)O)NC1=O)C(C)C
B5: 3BP-3859 (peptide)
peptide: {DOTA}-YCE[dP]DWLTWSC-NH2
modifications: linker 2-11 via mXylylene
SMILES: CC(C)C[C@@H]1NC(=O)[C@H](Cc2c[nH]c3ccccc23)NC(=O)[C@H](CC(=O)O)NC(=O)[C@H]2CCCN2C(=O)[C@H](CCC(=O)O)NC(=O)[C@@H](NC(=O)[C@H](Cc2ccc(O)cc2)NC(=O)CN2CCN(CC(=O)O)CCN(CC(=O)O)CCN(CC(=O)O)CC2)CSCc2cccc(c2)CSC[C@@H](C(N)=O)NC(=O)[C@H](CO)NC(=O)[C@H](Cc2c[nH]c3ccccc23)NC(=O)[C@H]([C@@H](C)O)NC1=O
notes: also called DOTA-Tyr-[Cys(3MeBn)-Glu-pro-Asp-Trp-Leu-Thr-Trp-Ser-Cys]-NH2
B6: 3BP-2959 (peptide)
peptide: {DOTA-Ttds}-VYCEGDWLTWQC-NH2
modifications: linker 3-12 via mXylylene
B7: 3BP-3858 (peptide)
peptide: {DOTA-APAc″}-CE[dP]DWLTWSC-NH2
modifications: linker 1-10 via mXylylene
notes: also called DOTA-APAc-[Cys(3MeBn)-Glu-pro-Asp-Trp-Leu-Thr-Trp-Ser-Cys]-NH2
B8: 3BP-3110 (peptide)
peptide: Hydrocinnamoyl-VYCEGDWLTWQC-NH2
modifications: linker 3-12 via mXylylene
SMILES: CC(C)C[C@@H]1NC(=O)[C@H](Cc2c[nH]c3ccccc23)NC(=O)[C@H](CC(=O)O)NC(=O)CNC(=O)[C@H](CCC(=O)O)NC(=O)[C@@H](NC(=O)[C@H](Cc2ccc(O)cc2)NC(=O)[C@@H](NC(=O)CCc2ccccc2)C(C)C)CSCc2cccc(c2)CSC[C@@H](C(N)=O)NC(=O)[C@H](CCC(N)=O)NC(=O)[C@H](Cc2c[nH]c3ccccc23)NC(=O)[C@H]([C@@H](C)O)NC1=O
B9: 3BP-3109 (peptide)
peptide: PhAc-VYCEGDWLTWQC-NH2
modifications: linker 3-12 via mXylylene
SMILES: CC(C)C[C@@H]1NC(=O)[C@H](Cc2c[nH]c3ccccc23)NC(=O)[C@H](CC(=O)O)NC(=O)CNC(=O)[C@H](CCC(=O)O)NC(=O)[C@@H](NC(=O)[C@H](Cc2ccc(O)cc2)NC(=O)[C@@H](NC(=O)Cc2ccccc2)C(C)C)CSCc2cccc(c2)CSC[C@@H](C(N)=O)NC(=O)[C@H](CCC(N)=O)NC(=O)[C@H](Cc2c[nH]c3ccccc23)NC(=O)[C@H]([C@@H](C)O)NC1=O
B10: 3BP-3271 (peptide)
peptide: {DOTA-Ttds(3)}-VYCE[Sar]DWLTWQC-NH2
modifications: linker 3-12 via mXylylene
notes: also called DOTA-Ttds-Val-Tyr-[Cys(3MeBn)-Glu-Nmg-Asp-Trp-Leu-Thr-Trp-Gln-Cys]-NH2
B11: 3BP-3060 (peptide)
peptide: Ac-VYCE[Sar]DWLTWQC-NH2
modifications: linker 3-12 via mXylylene
SMILES: CC(=O)N[C@H](C(=O)N[C@@H](Cc1ccc(O)cc1)C(=O)N[C@H]1CSCc2cccc(c2)CSC[C@@H](C(N)=O)NC(=O)[C@H](CCC(N)=O)NC(=O)[C@H](Cc2c[nH]c3ccccc23)NC(=O)[C@H]([C@@H](C)O)NC(=O)[C@H](CC(C)C)NC(=O)[C@H](Cc2c[nH]c3ccccc23)NC(=O)[C@H](CC(=O)O)NC(=O)CN(C)C(=O)[C@H](CCC(=O)O)NC1=O)C(C)C
notes: also called Ac-Val-Tyr-[Cys(3MeBn)-Glu-Nmg-Asp-Trp-Leu-Thr-Trp-Gln-Cys]-NH2
B12: 3BP-3111 (peptide)
peptide: Isovaleryl-VYCEGDWLTWQC-NH2
modifications: linker 3-12 via mXylylene
SMILES: CC(C)CC(=O)N[C@H](C(=O)N[C@@H](Cc1ccc(O)cc1)C(=O)N[C@H]1CSCc2cccc(c2)CSC[C@@H](C(N)=O)NC(=O)[C@H](CCC(N)=O)NC(=O)[C@H](Cc2c[nH]c3ccccc23)NC(=O)[C@H]([C@@H](C)O)NC(=O)[C@H](CC(C)C)NC(=O)[C@H](Cc2c[nH]c3ccccc23)NC(=O)[C@H](CC(=O)O)NC(=O)CNC(=O)[C@H](CCC(=O)O)NC1=O)C(C)C
B13: 3BP-3730 (peptide)
peptide: {Propanoyl(3-OH)}-YCE[dP]DWLTWSC-NH2
modifications: linker 2-11 via 3MeBn
notes: also called 3OHPr-Tyr-[Cys(3MeBn)-Glu-pro-Asp-Trp-Leu-Thr-Trp-Ser-Cys]-NH2
B14: 3BP-3870 (peptide)
peptide: {DOTA-Ttds(3)}-[Nle]YCE[dP]DWLTWSC-NH2
modifications: linker 3-12 via mXylylene
notes: also called DOTA-Ttds-Nle-Tyr-[Cys(3MeBn)-Glu-pro-Asp-Trp-Leu-Thr-Trp-Ser-Cys]-NH2
B15: 3BP-3065 (peptide)
peptide: Ac-VYCEGDW[tBuAla]TWQC-NH2
modifications: linker 3-12 via mXylylene
SMILES: CC(=O)N[C@H](C(=O)N[C@@H](Cc1ccc(O)cc1)C(=O)N[C@H]1CSCc2cccc(c2)CSC[C@@H](C(N)=O)NC(=O)[C@H](CCC(N)=O)NC(=O)[C@H](Cc2c[nH]c3ccccc23)NC(=O)[C@H]([C@@H](C)O)NC(=O)[C@H](CC(C)(C)C)NC(=O)[C@H](Cc2c[nH]c3ccccc23)NC(=O)[C@H](CC(=O)O)NC(=O)CNC(=O)[C@H](CCC(=O)O)NC1=O)C(C)C
notes: also called Ac-Val-Tyr-[Cys(3MeBn)-Glu-Gly-Asp-Trp-Npg-Thr-Trp-Gln-Cys]-NH2
B16: 3BP-3283 (peptide)
peptide: Ac-VYCE[dPip]DWLTWAC-NH2
modifications: linker 3-12 via mXylylene
SMILES: CC(=O)N[C@H](C(=O)N[C@@H](Cc1ccc(O)cc1)C(=O)N[C@H]1CSCc2cccc(c2)CSC[C@@H](C(N)=O)NC(=O)[C@H](C)NC(=O)[C@H](Cc2c[nH]c3ccccc23)NC(=O)[C@H]([C@@H](C)O)NC(=O)[C@H](CC(C)C)NC(=O)[C@H](Cc2c[nH]c3ccccc23)NC(=O)[C@H](CC(=O)O)NC(=O)[C@H]2CCCCN2C(=O)[C@H](CCC(=O)O)NC1=O)C(C)C
notes: also called Ac-Val-Tyr-[Cys(3MeBn)-Glu-pip-Asp-Trp-Leu-Thr-Trp-Ala-Cys]-NH2
B17: 3BP-3059 (peptide)
peptide: Ac-VYCE[Aib]DWLTWQC-NH2
modifications: linker 3-12 via mXylylene
SMILES: CC(=O)N[C@H](C(=O)N[C@@H](Cc1ccc(O)cc1)C(=O)N[C@H]1CSCc2cccc(c2)CSC[C@@H](C(N)=O)NC(=O)[C@H](CCC(N)=O)NC(=O)[C@H](Cc2c[nH]c3ccccc23)NC(=O)[C@H]([C@@H](C)O)NC(=O)[C@H](CC(C)C)NC(=O)[C@H](Cc2c[nH]c3ccccc23)NC(=O)[C@H](CC(=O)O)NC(=O)C(C)(C)NC(=O)[C@H](CCC(=O)O)NC1=O)C(C)C
notes: also called Ac-Val-Tyr-[Cys(3MeBn)-Glu-Aib-Asp-Trp-Leu-Thr-Trp-Gln-Cys]-NH2
B18: 3BP-3868 (peptide)
peptide: {DOTA-4Amc}-YCE[dP]DWLTWSC-NH2
modifications: linker 2-11 via mXylylene; reading uncertain
notes: also called DOTA-4Amc-Tyr-[Cys(3MeBn)-Glu-pro-Asp-Trp-Leu-Thr-Trp-Ser-Cys]-NH2
B19: 3BP-3290 (peptide)
peptide: Ac-VYCE[Sar]D[ξTrp(5-Me)]LTWQC-NH2
modifications: linker 3-12 via mXylylene; not fully specified; also: position 7 is DL-5-methyltryptophan, configuration not given here
notes: also called Ac-Val-Tyr-[Cys(3MeBn)-Glu-Nmg-Asp-Egc-Leu-Thr-Trp-Gln-Cys]-NH2
B20: 3BP-3108 (peptide)
peptide: {Bz′}-VYCEGDWLTWQC-NH2
modifications: linker 3-12 via mXylylene
B21: 3BP-3867 (peptide)
peptide: {DOTA-APAc″}-YCE[dP]DWLTWSC-NH2
modifications: linker 2-11 via mXylylene
notes: also called DOTA-APAc-Tyr-[Cys(3MeBn)-Glu-pro-Asp-Trp-Leu-Thr-Trp-Ser-Cys]-NH2

Starred links: 1 amine or outer side, 2 acyl side, 3 side chain; linkers in the order of their positions; H or OH if unused. Positions of bridges follow the written chain, without caps; N, C: chain ends. Non-standard residues stand in square brackets, D forms with d. Primed or numbered codes have the meaning given here. ξ: configuration not given here. *: point of attachment. Ttds = 1,13-diamino-4,7,10-trioxatridecan-succinamic acid spacer, NCCCOCCOCCOCCCNC(=O)CCC(=O)*; APAc″ = 2-(4-(amino)piperidin-1-yl)acetic acid, NC1CCN(CC(=O)*)CC1; DOTA = O=C(O)CN1CCN(CC(=O)O)CCN(CC(=O)*)CCN(CC(=O)O)CC1; Trp(5-Cl) = N[C@@H](Cc1c[nH]c2ccc(Cl)cc12)C(=O)O; ξTrp(5-Me) = Cc1ccc2[nH]cc(CC(N)C(=O)O)c2c1; Ttds(3) = NCCCOCCOCCOCCCNC(=O)CCC(=O)*; mXylylene = c1cc(C[*:1])cc(C[*:2])c1; Hydrocinnamoyl = O=C(CCc1ccccc1)*; tBuAla = CC(C)(C)C[C@H](N)C(=O)O; Pen = CC(C)(S)[C@H](N)C(=O)O; Propanoyl(3-OH) = O=C(CCO)*; Isovaleryl = CC(C)CC(=O)*; dPip = O=C(O)[C@H]1CCCCN1; Nle = CCCC[C@H](N)C(=O)O; 4Amc = not defined here; Bz′ = not defined here; Hexanoyl = CCCCCC(=O)*; PhAc = O=C(Cc1ccccc1)*; AEEA = NCCOCCOCC(=O)O; Aib = CC(C)(N)C(=O)O; Sar = CNCC(=O)O Where only a bound is given, the exact number is not on record here.

This assay has as its target human carbonic anhydrase 9 (CAIX) (human, UniProt Q16790 38-459). Description: FACS competition on HT-29 cells against tracer 3BP-2776; pIC50 category A = pIC50 >8.0.
Turning to B1, the pIC50 was > 8 pic50.

Turning to B2, the pIC50 was > 8 pic50.

For the molecule B3, the pIC50 is > 8 pic50.

As for B4, the pIC50 is > 8 pic50.

As for B5, the pIC50 is > 8 pic50.

Regarding B6, the pIC50 was > 8 pic50.

For B7, the pIC50 is > 8 pic50.

B8: the pIC50 was > 8 pic50.

For B9, the pIC50 was > 8 pic50.

For the molecule B10, the pIC50 was > 8 pic50.

For B11, the pIC50 is > 8 pic50.

Turning to B12, the pIC50 was > 8 pic50.

For the molecule B13, the pIC50 was > 8 pic50.

Turning to B14, the pIC50 was > 8 pic50.

Turning to B15, the pIC50 is > 8 pic50.

In the case of B16, the pIC50 was > 8 pic50.

As to B17, the pIC50 was > 8 pic50.

In the case of B18, the pIC50 is > 8 pic50.

Take B19: the pIC50 was > 8 pic50.

For B20, the pIC50 is > 8 pic50.

On to B21, for which the pIC50 was > 8 pic50.
